# Measured values reported in the supplement of paper PMC10567573.
# B1: GNB5 (parent)
# chain: YYPSGDAFASGSDDATCRLYDLRA
# B2: BRF1 (parent)
# chain: CTACGSVLEDNIIVSEVQFVESSG
# Variants of: B1
# Experiment: protein stability index of a GFP-peptide fusion (GPS, HEK-293T) (PSI 1-6); higher = more stable
# Conditions: c terminus: a fixed tail appended
# 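Also: lentivirally expressed fusions sorted by FACS into six bins by GFP to DsRed ratio, PSI derived from sequencing read proportions per bin multiplied by bin number.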
row,Variant,protein stability index
1,YYPSGDAFASGSDDATCRLYDLAA,2.47
2,YYPSGDAFASGSDDATCRLYDLHA,2.87
3,YYPSGDAFASGSDDATCRLYDLDA,3.01
4,YYPSGDAFASGSDDATCRLYDLTA,2.18
5,YYPSGDAFASGSDDATCRLYDLVA,2.03
6,YYPSGDAFASGSDDATCRLYDLGA,2.65
7,YYPSGDAFASGSDDATCRLYDLPA,2.86
8,YYPSGDAFASGSDDATCRLYDLIA,2.37
9,YYPSGDAFASGSDDATCRLYDLWA,2.15
10,YYPSGDAFASGSDDATCRLYDLSA,2.81
11,YYPSGDAFASGSDDATCRLYDLYA,2.01
12,YYPSGDAFASGSDDATCRLYDLNA,2.33
13,YYPSGDAFASGSDDATCRLYDLCA,2.27
14,YYPSGDAFASGSDDATCRLYDLFA,2.27
15,YYPSGDAFASGSDDATCRLYDLQA,2.47
16,YYPSGDAFASGSDDATCRLYDLEA,3.14
17,YYPSGDAFASGSDDATCRLYDLKA,2.58
18,YYPSGDAFASGSDDATCRLYDLMA,2.37
19,YYPSGDAFASGSDDATCRLYDLLA,2.03

row,Variant,protein stability index
1,YYPSGDAFASGSDDATCRLYDLRM,2.85
2,YYPSGDAFASGSDDATCRLYDLRP,2.34
3,YYPSGDAFASGSDDATCRLYDLRY,2.22
4,YYPSGDAFASGSDDATCRLYDLRL,2.14
5,YYPSGDAFASGSDDATCRLYDLRT,2.86
6,YYPSGDAFASGSDDATCRLYDLRH,2.24
7,YYPSGDAFASGSDDATCRLYDLRQ,3.01
8,YYPSGDAFASGSDDATCRLYDLRG,2.7
9,YYPSGDAFASGSDDATCRLYDLRF,2.07
10,YYPSGDAFASGSDDATCRLYDLRW,2
11,YYPSGDAFASGSDDATCRLYDLRV,1.78
12,YYPSGDAFASGSDDATCRLYDLRI,1.9
13,YYPSGDAFASGSDDATCRLYDLRR,2.41
14,YYPSGDAFASGSDDATCRLYDLRD,2.62
15,YYPSGDAFASGSDDATCRLYDLRN,2.79
16,YYPSGDAFASGSDDATCRLYDLRC,2.3
17,YYPSGDAFASGSDDATCRLYDLRS,2.32
18,YYPSGDAFASGSDDATCRLYDLRK,2.43
19,YYPSGDAFASGSDDATCRLYDLRE,2.27

# Variants of: B2
# Experiment: as above
# Conditions: c terminus: a fixed tail appended
row,Variant,protein stability index
1,CTMCGSVLEDNIIVSEVQFVESSG,2.87
2,CTECGSVLEDNIIVSEVQFVESSG,3.6
3,CTPCGSVLEDNIIVSEVQFVESSG,3.47
4,CTGCGSVLEDNIIVSEVQFVESSG,2.37
5,CTWCGSVLEDNIIVSEVQFVESSG,3.08
6,CTSCGSVLEDNIIVSEVQFVESSG,2.91
7,CTTCGSVLEDNIIVSEVQFVESSG,3.07
8,CTNCGSVLEDNIIVSEVQFVESSG,4.03
9,CTHCGSVLEDNIIVSEVQFVESSG,2.56
10,CTKCGSVLEDNIIVSEVQFVESSG,4.04
11,CTYCGSVLEDNIIVSEVQFVESSG,2.5
12,CTLCGSVLEDNIIVSEVQFVESSG,2.08
13,CTVCGSVLEDNIIVSEVQFVESSG,3.22
14,CTFCGSVLEDNIIVSEVQFVESSG,2.4
15,CTDCGSVLEDNIIVSEVQFVESSG,2.28
16,CTRCGSVLEDNIIVSEVQFVESSG,2.9
17,CTICGSVLEDNIIVSEVQFVESSG,2.06
18,CTQCGSVLEDNIIVSEVQFVESSG,3.88
19,CPACGSVLEDNIIVSEVQFVESSG,2.72
20,CDACGSVLEDNIIVSEVQFVESSG,3.42
21,CHACGSVLEDNIIVSEVQFVESSG,3
22,CFACGSVLEDNIIVSEVQFVESSG,2.12
23,CRACGSVLEDNIIVSEVQFVESSG,3.17
24,CLACGSVLEDNIIVSEVQFVESSG,2.75
25,CQACGSVLEDNIIVSEVQFVESSG,3.48

row,Variant,protein stability index
1,CIACGSVLEDNIIVSEVQFVESSG,2.52
2,CWACGSVLEDNIIVSEVQFVESSG,2.54
3,CAACGSVLEDNIIVSEVQFVESSG,3.64
4,CVACGSVLEDNIIVSEVQFVESSG,1.86
5,CGACGSVLEDNIIVSEVQFVESSG,2.33
6,CKACGSVLEDNIIVSEVQFVESSG,3.48
7,CSACGSVLEDNIIVSEVQFVESSG,2.87
8,CMACGSVLEDNIIVSEVQFVESSG,2.78
9,CEACGSVLEDNIIVSEVQFVESSG,3.25
10,CNACGSVLEDNIIVSEVQFVESSG,3.02
11,CYACGSVLEDNIIVSEVQFVESSG,2.21
12,CTAYGSVLEDNIIVSEVQFVESSG,2.61
13,CTATGSVLEDNIIVSEVQFVESSG,3.21
14,CTAIGSVLEDNIIVSEVQFVESSG,3.35
15,CTAGGSVLEDNIIVSEVQFVESSG,3.74
16,CTAVGSVLEDNIIVSEVQFVESSG,3.83
17,CTAFGSVLEDNIIVSEVQFVESSG,2.78
18,CTASGSVLEDNIIVSEVQFVESSG,3.5
19,CTAPGSVLEDNIIVSEVQFVESSG,2.68
20,CTAHGSVLEDNIIVSEVQFVESSG,4.04
21,CTALGSVLEDNIIVSEVQFVESSG,3.15
22,CTADGSVLEDNIIVSEVQFVESSG,4.7
23,CTAMGSVLEDNIIVSEVQFVESSG,3.88
24,CTAAGSVLEDNIIVSEVQFVESSG,3.49
25,CTANGSVLEDNIIVSEVQFVESSG,4.37

row,Variant,protein stability index
1,CTAKGSVLEDNIIVSEVQFVESSG,4.04
2,CTAQGSVLEDNIIVSEVQFVESSG,4.18
3,CTARGSVLEDNIIVSEVQFVESSG,3.57
4,CTAEGSVLEDNIIVSEVQFVESSG,4.21
5,CTACLSVLEDNIIVSEVQFVESSG,1.75
6,CTACWSVLEDNIIVSEVQFVESSG,2.27
7,CTACASVLEDNIIVSEVQFVESSG,2.86
8,CTACMSVLEDNIIVSEVQFVESSG,2.1
9,CTACHSVLEDNIIVSEVQFVESSG,1.76
10,CTACCSVLEDNIIVSEVQFVESSG,1.78
11,CTACSSVLEDNIIVSEVQFVESSG,3.17
12,CTACYSVLEDNIIVSEVQFVESSG,1.76
13,CTACESVLEDNIIVSEVQFVESSG,3.21
14,CTACQSVLEDNIIVSEVQFVESSG,2.92
15,CTACFSVLEDNIIVSEVQFVESSG,2.41
16,CTACNSVLEDNIIVSEVQFVESSG,3.24
17,CTACTSVLEDNIIVSEVQFVESSG,2.91
18,CTACPSVLEDNIIVSEVQFVESSG,3.67
19,CTACDSVLEDNIIVSEVQFVESSG,3.62
20,CTACRSVLEDNIIVSEVQFVESSG,2.4
21,CTACISVLEDNIIVSEVQFVESSG,2.76
22,CTACVSVLEDNIIVSEVQFVESSG,1.33
23,CTACKSVLEDNIIVSEVQFVESSG,3.33
24,CTACGSVMEDNIIVSEVQFVESSG,3.79
25,CTACGSVGEDNIIVSEVQFVESSG,3.39

row,Variant,protein stability index
1,CTACGSVVEDNIIVSEVQFVESSG,3.24
2,CTACGSVYEDNIIVSEVQFVESSG,2.93
3,CTACGSVQEDNIIVSEVQFVESSG,3.63
4,CTACGSVWEDNIIVSEVQFVESSG,1.89
5,CTACGSVREDNIIVSEVQFVESSG,3.03
6,CTACGSVAEDNIIVSEVQFVESSG,2.9
7,CTACGSVDEDNIIVSEVQFVESSG,3.65
8,CTACGSVIEDNIIVSEVQFVESSG,3.44
9,CTACGSVPEDNIIVSEVQFVESSG,3.9
10,CTACGSVNEDNIIVSEVQFVESSG,4.42
11,CTACGSVCEDNIIVSEVQFVESSG,3.29
12,CTACGSVKEDNIIVSEVQFVESSG,3.54
13,CTACGSVFEDNIIVSEVQFVESSG,2.37
14,CTACGSVEEDNIIVSEVQFVESSG,3.68
15,CTACGSVTEDNIIVSEVQFVESSG,4.19
16,CTACGSVSEDNIIVSEVQFVESSG,3.06
17,CTACGSVHEDNIIVSEVQFVESSG,3.32
18,ITACGSVLEDNIIVSEVQFVESSG,1.46
19,STACGSVLEDNIIVSEVQFVESSG,4.13
20,QTACGSVLEDNIIVSEVQFVESSG,4.3
21,FTACGSVLEDNIIVSEVQFVESSG,2.63
22,PTACGSVLEDNIIVSEVQFVESSG,3.29
23,ETACGSVLEDNIIVSEVQFVESSG,4.86
24,RTACGSVLEDNIIVSEVQFVESSG,3.83
25,YTACGSVLEDNIIVSEVQFVESSG,3.18

row,Variant,protein stability index
1,ATACGSVLEDNIIVSEVQFVESSG,3.88
2,LTACGSVLEDNIIVSEVQFVESSG,3.56
3,TTACGSVLEDNIIVSEVQFVESSG,4.16
4,VTACGSVLEDNIIVSEVQFVESSG,2.2
5,WTACGSVLEDNIIVSEVQFVESSG,2.51
6,DTACGSVLEDNIIVSEVQFVESSG,4.46
7,GTACGSVLEDNIIVSEVQFVESSG,4.18
8,NTACGSVLEDNIIVSEVQFVESSG,3.65
9,HTACGSVLEDNIIVSEVQFVESSG,3.6
10,MTACGSVLEDNIIVSEVQFVESSG,3.6
11,CTACGSVLDDNIIVSEVQFVESSG,3.55
12,CTACGSVLCDNIIVSEVQFVESSG,2.31
13,CTACGSVLADNIIVSEVQFVESSG,3.03
14,CTACGSELEDNIIVSEVQFVESSG,4.17
15,CTACGSPLEDNIIVSEVQFVESSG,3.64
16,CTACGSILEDNIIVSEVQFVESSG,2.56
17,CTACGSLLEDNIIVSEVQFVESSG,2.51
18,CTACGSFLEDNIIVSEVQFVESSG,2.33
19,CTACGSTLEDNIIVSEVQFVESSG,3.86
20,CTACGSQLEDNIIVSEVQFVESSG,2.96
21,CTACGSKLEDNIIVSEVQFVESSG,4.22
22,CTACGSCLEDNIIVSEVQFVESSG,2.64
23,CTACGSRLEDNIIVSEVQFVESSG,3.22
24,CTACGSYLEDNIIVSEVQFVESSG,2.37
25,CTACGSNLEDNIIVSEVQFVESSG,2.94

row,Variant,protein stability index
1,CTACGSDLEDNIIVSEVQFVESSG,3.44
2,CTACGSHLEDNIIVSEVQFVESSG,2.58
3,CTACGSSLEDNIIVSEVQFVESSG,2.85
4,CTACGSWLEDNIIVSEVQFVESSG,2.53
5,CTACGSGLEDNIIVSEVQFVESSG,2.8
6,CTACGSALEDNIIVSEVQFVESSG,3.8
7,CTACGSMLEDNIIVSEVQFVESSG,2.72
8,CTACGFVLEDNIIVSEVQFVESSG,1.24
9,CTACGGVLEDNIIVSEVQFVESSG,3.35
10,CTACGRVLEDNIIVSEVQFVESSG,2.51
11,CTACGDVLEDNIIVSEVQFVESSG,2.94
12,CTACGQVLEDNIIVSEVQFVESSG,2.44
13,CTACGTVLEDNIIVSEVQFVESSG,3.38
14,CTACGVVLEDNIIVSEVQFVESSG,2.22
15,CTACGAVLEDNIIVSEVQFVESSG,2.73
16,CTACGMVLEDNIIVSEVQFVESSG,1.82
17,CTACGHVLEDNIIVSEVQFVESSG,4.15
18,CTACGYVLEDNIIVSEVQFVESSG,1.59
19,CTACGEVLEDNIIVSEVQFVESSG,2.2
20,CTACGCVLEDNIIVSEVQFVESSG,2.38
21,CTACGLVLEDNIIVSEVQFVESSG,1.39
22,CTACGIVLEDNIIVSEVQFVESSG,1.27
23,CTACGPVLEDNIIVSEVQFVESSG,2.79
24,CTACGKVLEDNIIVSEVQFVESSG,3.06
25,CTACGNVLEDNIIVSEVQFVESSG,2.5
